Data published in patent US20140248666A1 (Amgen, published 2014).

B1: Antibody 5 (antibody, human IgG2, kappa, V domains shown)
VH: EVQLVQSGAEVKKPGASVKVSCKASGYTFTDYNMHWVRQAPGQGLEWMGEINPNSGGAGYNQKFKGRVTMTTDTSTSTAYMELRSLRSDDTAVYYCARLGYDDIYDDWYFDVWGQGTTVTVSS
VL: DIQMTQSPSSLSASVGDRVTITCRASQDISNYLNWYQQKPGKAPKLLIYYTSRLLSGVPSRFSGSGSGTDFTLTISSLQPEDFATYYCQQGDTLPYTFGGGTKVEIKR
notes: Humanized Ab-4; Mature LC and HC; also called Ab-5
B2: Antibody 4 (antibody, mouse IgG1, kappa, V domains shown)
VH: EVQLQQSGPELMKPGASVKMSCKASGYTFTDYNMHWVKQNQGKTLEWIGEINPNSGGAGYNQKFKGKATLTVDKSSTTAYMELRSLTSEDSAVYYCARLGYDDIYDDWYFDVWGAGTTVTVSS
VL: DIQMTQITSSLSASLGDRVSISCRASQDISNYLNWYQQKPDGTFKLLIFYTSRLLSGVPSRFSGSGSGTDYSLTIYNLEQEDFATYFCQQGDTLPYTFGGGTKLEIKR
notes: Mature LC and HC; Parent of humanized Ab-5; also called Ab-4
B3: Antibody 3 (antibody, mouse IgG1, kappa)
light: EIVLTQSPALMAASPGEKVTITCSVSSTISSNHLHWFQQKSDTSPKPWIYGTSNLASGVPVRFSGSGSGTSYSLTISSMEAEDAATYYCQQWSSYPLTFGAGTKLELRRADAAPTVSIFPPSSEQLTSGGASVVCFLNNFYPKDINVKWKIDGSERQNGVLNSWTDQDSKDSTYSMSSTLTLTKDEYERHNSYTCEATHKTSTSPIVKSFNRNEC
heavy: EVQLQQSGAELVRPGALVKLSCTASDFNIKDFYLHWMRQRPEQGLDWIGRIDPENGDTLYDPKFQDKATLTTDTSSNTAYLQLSGLTSETTAVYYCSREADYFHDGTSYWYFDVWGAGTTITVSSAKTTPPSVYPLAPGSAAQTNSMVTLGCLVKGYFPEPVTVTWNSGSLSSGVHTFPAVLQSDLYTLSSSVTVPSSTWPSETVTCNVAHPASSTKVDKKIVPRDCGCKPCICTVPEVSSVFIFPPKPKDVLTITLTPKVTCVVVDISKDDPEVQFSWFVDDVEVHTAQTQPREEQFNSTFRSVSELPIMHQDWLNGKEFKCRVNSAAFPAPIEKTISKTKGRPKAPQVYTIPPPKEQMAKDKVSLTCMITDFFPEDITVEWQWNGQPAENYKNTQPIMDTDGSYFIYSKLNVQKSNWEAGNTFTCSVLHEGLHNHHTEKSLSHSPGK
notes: Mature LC and HC (signal peptide removed); Parent of humanized Ab-15; also called Ab-3
B4: Antibody 23 (antibody, human IgG2, kappa)
light: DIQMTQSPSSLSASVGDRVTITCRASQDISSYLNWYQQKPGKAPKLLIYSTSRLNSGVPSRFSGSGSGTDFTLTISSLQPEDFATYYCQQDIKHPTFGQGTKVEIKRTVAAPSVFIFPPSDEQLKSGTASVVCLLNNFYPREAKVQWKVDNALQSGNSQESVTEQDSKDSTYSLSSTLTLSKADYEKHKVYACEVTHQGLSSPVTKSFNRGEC
heavy: EVQLVQSGAEVKKPGSSVKVSCKASGFTFTDYIMHWVRQAPGQGLEWMGYINPYNDDTEYNEKFKGRVTITADKSTSTAYMELSSLRSEDTAVYYCARSIYYYDAPFAYWGQGTLVTVSSASTKGPSVFPLAPCSRSTSESTAALGCLVKDYFPEPVTVSWNSGALTSGVHTFPAVLQSSGLYSLSSVVTVPSSNFGTQTYTCNVDHKPSNTKVDKTVERKCCVECPPCPAPPVAGPSVFLFPPKPKDTLMISRTPEVTCVVVDVSHEDPEVQFNWYVDGVEVHNAKTKPREEQFNSTFRVVSVLTVVHQDWLNGKEYKCKVSNKGLPAPIEKTISKTKGQPREPQVYTLPPSREEMTKNQVSLTCLVKGFYPSDIAVEWESNGQPENNYKTTPPMLDSDGSFFLYSKLTVDKSRWQQGNVFSCSVMHEALHNHYTQKSLSLSPGK
notes: Humanized Ab-19, IgG2 version; Mature LC and HC; also called Ab-23
B5: Antibody 13 (antibody, mouse IgG1, kappa, V domains shown)
VH: EVQLQQSGPELVKPGASVKMSCKASGYTFTDYYMNWVKQSHGESLEWIGDINPYNDDTTYNHKFKGKATLTVDKSSNTAYMQLNSLTSEDSAVYYCARETAVITTNAMDYWGQGTSVTVSS
VL: QIVLTQSPAIMSASPGEKVTMTCRASSSVTSSYLNWYQQKPGSSPKLWIYSTSNLASGVPARFSGSGSGTSYSLTISSVEAEDAATYYCQQYDFFPSTFGGGTKLEIKR
notes: Mature LC and HC; Parent of humanized Ab-14; also called Ab-13
B6: Antibody 14 (antibody, human IgG2, kappa, V domains shown)
VH: EVQLVQSGAEVKKPGASVKVSCKASGYTFTDYYMNWVRQAPGQRLEWMGDINPYNDDTTYNHKFKGRVTITRDTSASTAYMELSSLRSEDTAVYYCARETAVITTNAMDYWGQGTTVTVSS
VL: DIQLTQSPSFLSASVGDRVTITCRASSSVTSSYLNWYQQKPGKAPKLLIYSTSNLASGVPSRFSGSGSGTEFTLTISSLQPEDFATYYCQQYDFFPSTFGGGTKVEIKR
notes: Humanized Ab-13; Mature LC and HC; also called Ab-14; Ab14
B7: Antibody 19 (antibody, V domains shown)
VH: EVQLQQSGPELVKPGASVKMSCKASGFTFTDYIMHWVKQKPGQGLEWIGYINPYNDDTEYNEKFKGKATLTSDKSSSTAYMDLSSLTSEGSAVYYCARSIYYYDAPFAYWGQGTLVTVSS
VL: DIQMTQTTSSLSASLGDRVNISCRASQDISSYLNWYQQKPDGTVKLLIYSTSRLNSGVPSRFSGSGSGTDYSLTISNLAQEDIATYFCQQDIKHPTFGGGTKLELKR
notes: the signal peptide is not part of the antibody as tested; Parent of humanized Ab-20 and Ab-23; also called Ab-19

How the values were obtained:
[1] = target: T1, human sclerostin, mature form (signal peptide removed) (human, UniProt Q9BQB4 24-213); assay: KinExA solution equilibrium binding, human sclerostin-coated beads
T1 construct: 190 amino acid glycoprotein with four disulfide bonds (C1-C5, C2-C6, C3-C7, C4-C8); also called SOST; recombinant human sclerostin
T1 sequence: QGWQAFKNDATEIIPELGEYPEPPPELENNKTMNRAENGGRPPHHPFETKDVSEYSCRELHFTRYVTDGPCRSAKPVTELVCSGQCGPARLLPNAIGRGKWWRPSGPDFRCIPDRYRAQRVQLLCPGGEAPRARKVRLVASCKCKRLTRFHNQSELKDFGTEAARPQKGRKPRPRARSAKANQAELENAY
Protocol: The affinity of several anti-sclerostin antibodies to human sclerostin was assessed by a solution equilibrium binding analysis using KinExA® 3000 (Sapidyne Instruments Inc., Boise, Id.). For these measurements, Reacti-Gel 6× beads (Pierce, Rockford, Ill.) were pre-coated with 40 μg/ml human sclerostin in 50 mM Na2CO3, pH 9.6 at 4° C. overnight. The beads were then blocked with 1 mg/ml BSA in 1M Tris-HCl, pH 7.5 at 4° C. for two hours. 10 pM, 30 pM, or 100 pM of the antibody was mixed with various concentrations of human sclerostin, ranging in concentration from 0.1 pM to 1 nM, and equilibrated at room temperature for over 8 hours in PBS with 0.1 mg/ml BSA and 0.005% P20. The mixtures were then passed over the human sclerostin coated beads. The amount of bead-bound anti-sclerostin antibody was quantified using fluorescent Cy5-labeled goat anti-mouse-IgG or fluorescent Cy5-labeled goat anti-human-IgG antibodies (Jackson Immuno Research, West Grove, Pa.) for the mouse or human antibody samples, respectively. The amount of fluorescent signal measured was proportional to the concentration of free anti-sclerostin antibody in each reaction mixture at equilibrium. The dissociation equilibrium constant (KD) was obtained from nonlinear regression of the competition curves using a n-curve one-site homogeneous binding model provided in the KinExA Pro software.

[2] = target: T1, human sclerostin, mature form (signal …); assay: Biacore 3000; antibody captured by anti-human IgG Fc, sclerostin as analyte
Protocol: The assay format was capture of the anti-sclerostin antibody by immobilised anti-human IgG-Fc then titration of the sclerostin over the captured surface. An example of the procedure is given below: BIA (Biamolecular Interaction Analysis) was performed using a BIAcore 3000 (BIAcore AB). Affinipure F(ab′)₂ Fragment goat anti-human IgG, Fc fragment specific (Jackson
ImmunoResearch) was immobilised on a CM5 Sensor Chip via amine coupling chemistry to a capture level of ≈4000 response units (RUs). HBS-EP buffer (10 mM HEPES pH 7.4, 0.15 M NaCl, 3 mM EDTA, 0.005% Surfactant P20, BIAcore AB) containing 1 mg/mL CM-Dextran was used as the running buffer with a flow rate of 10 μl/min. A 10 μl injection of the anti-sclerostin antibody at ˜5 μg/mL was used for capture by the immobilised anti-human IgG-Fc. Antibody capture levels were typically 100-200 RU. Sclerostin was titrated over the captured anti-sclerostin antibody at various concentrations at a flow rate of 30 μL/min. The surface was regenerated by two 10 μL injections of 40 mM HCl, followed by a 5 μL injection of 5 mM NaOH at a flowrate of 10 μL/min.
Background subtraction binding curves were analysed using the BIAevaluation software (version 3.2) following standard procedures. Kinetic parameters were determined from the fitting algorithm.

[3] = target: T1, human sclerostin, mature form (signal …); assay: Biacore cross-blocking, human sclerostin on CM5 chip; mixed with competitor Ab-3, each 1.3 uM binding sites
Protocol: (§1) Human sclerostin was coupled to a CM5 Biacore chip using standard amine coupling chemistry to generate a sclerostin coated surface. 300 resonance units of sclerostin were coupled to the surface.
(§2) 20 μL of the test mixture was passed over the sclerostin-coated chip at a flow rate of 10 μL/min and the amount of binding recorded. The chip was then treated with two 60 second pulses of 30 mM HCl to remove all of the bound antibody. A solution containing only one of the antibodies of the test mixture (at 1.3 μM in the same buffer as the test mixture on a binding site basis) was then passed over the chip in the same manner as the test mixture and the amount of binding recorded. The chip was again treated to remove all of the bound antibody and finally a solution containing the other antibody from the test mixture alone (at 1.3 μM in the same buffer as the test mixture on a binding site basis) was passed over the chip and the amount of binding recorded.
(§3) The table below show the results from cross-blocking assays on a range of different antibodies. The values in each square of the table represent the amount of binding (in RU) seen when the antibodies (at 1.3 μM on a binding site basis) or buffer indicated in the top row of the table were mixed with the antibodies (at 1.3 uM on a binding site basis) or buffer indicated in the first column of the table.

[4] = target: T1, human sclerostin, mature form (signal …); assay: Biacore cross-blocking, human sclerostin on CM5 chip; mixed with competitor Ab-A, each 1.3 uM binding sites
Protocol: as §1, §2, §3

[5] = target: T1, human sclerostin, mature form (signal …); assay: Biacore cross-blocking, human sclerostin on CM5 chip; mixed with competitor Ab-13, each 1.3 uM binding sites
Protocol: as §1
(§4) The antibodies to be tested were diluted to a concentration of 200 ug/ml in HBS-EP buffer (being 10 mM HEPES pH 7.4, 150 mM NaCl, 3 mM EDTA, 0.005% (v/v) Surfactant P20) and then mixed in a one to one molar ratio (on a binding site basis) to generate the test mixture. This test mixture thus contained each antibody at a concentration of 100 ug/ml (1.3 um on a binding site basis). Separate solutions containing each of the antibodies in the test mix alone were also prepared. These solutions contained the individual antibodies in HBS-EP buffer at a concentration of 100 ug/ml (1.3 um on a binding site basis).
as §2

[6] = target: T1, human sclerostin, mature form (signal …); assay: Biacore cross-blocking, human sclerostin on CM5 chip; mixed with competitor Ab-19, each 1.3 uM binding sites
Protocol: as §1, §4, §2

[7] = target: T1, human sclerostin, mature form (signal …); assay: Biacore cross-blocking on human sclerostin; mixture with competitor Ab-3, mean RU against the sum of each alone
Protocol: as §1, §4, §2

[8] = target: T1, human sclerostin, mature form (signal …); assay: Biacore cross-blocking on human sclerostin; mixture with competitor Ab-19, mean RU against the sum of each alone
Protocol: as §1, §4, §2

[9] = target: T1, human sclerostin, mature form (signal …); assay: Biacore cross-blocking, human sclerostin on CM5 chip; mixed with competitor Ab-4, each 1.3 uM binding sites
Protocol: as §1, §2, §3

| Binder | Kd [1] [pM] | Kd [2] [pM] | koff [2] [s⁻¹] | kon [2] [M⁻¹ s⁻¹] | amount of binding (RU) [3] [RU] | amount of binding (RU) [4] [RU] | amount of binding (RU) [5] [RU] | amount of binding (RU) [6] [RU] | percentage of the theoretical binding [7] [%] | percentage of the theoretical binding [8] [%] | amount of binding (RU) [9] [RU] |
| --- | --- | --- | --- | --- | --- | --- | --- | --- | --- | --- | --- |
| B1 | 6 | 97.8 | 0.000174 | 1.78e+06 |  |  |  |  |  |  |  |
| B2 | 3 |  |  |  | 869 | 860 | 1020 | 822 | 85.4 | 60.8 |  |
| B3 |  |  |  |  |  | 952 | 428 | 896 |  | 94.4 | 845 |
| B4 | 4 |  |  |  |  |  |  |  |  |  |  |
| B5 | 0.6 |  |  |  | 432 | 1110 |  | 1040 | 58 | 97 | 1010 |
| B6 | 1 | 1.48 | 4.87e-06 | 3.3e+06 |  |  |  |  |  |  |  |
| B7 | 3 |  |  |  | 892 | 863 | 1020 |  |  |  | 789 |
